Test results reported in EP1012244B1.

Target: HIV-1 strain IIIB envelope protein gp120/41 on the surface of HIV-1-infected Jurkat cells (HIV-1 strain IIIB) (UniProt P04578)
Experiment: cell-based or functional assay

In the case of “CXCR4 protein with an HA epitope tag (from UniProt P61073 1-352) (receptor)”, the percentage of HIV-1+ cells that were also infected with VSVΔG-CC4 is reported as 90 to 95%.
